The target of test [1] is Biotin-ahx-SDC4cyt (human, rat and mouse (identical)). The experiment in a line: SPR; Biacore X100; biotin-ahx-SDC4cyt immobilised on SA chip at 100-200 RU; parvin as analyte 26.5-277.7 nM in Hepes pH 7.4, 150 mM NaCl, 3 mM EDTA, 0.005% Surfactant P20; 30 µL/min, 180 s association, 600 s dissociation; 1:1 Langmuir model. In general terms: Surface plasmon resonance follows binding to a sensor surface in real time, without labels.

Test [2] relates to FL β-parvin 20′mer overlapping peptides. In words: Peptide overlay: 20-mer β-parvin peptides overlaid with recombinant ILK (S343D). Format: binding, rat. Particulars: peptide array, O/N, 4°C, ILK antibodies, n = 4 membranes. The text has this:
Full-length (FL) recombinant human C-Myc/DDK-β-parvin was obtained from OriGene (TP308490, Rockville, MD, United States). Recombinant rat 8xHIS-β-parvin (85% purity), rat 8xHIS-α-parvin (85% purity), and mouse 8xHIS-ILK (S343D) (75% purity) were custom-made by GenScript.
The cytoplasmic tail of syndecan-4 (mouse) or FL β-parvin (rat) protein was synthesized as 20′mer overlapping peptides with 3 amino acids offset onto a cellulose membrane by a Multipep automated peptide synthesizer (CEM Corporation, Matthews, NC, United States) ([Frank and Overwin, 1996]). After membrane blocking, antibodies, or a solution with recombinant protein or biotin-ahx-SDC4 were added and incubated O/N at 4°C. Membranes were developed as described for immunoblotting.

Chain of Biotin-ahx-SDC4cyt (human, rat and mouse (identical)) (P31431 171-198): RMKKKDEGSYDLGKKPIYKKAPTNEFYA

For orientation: Kd means the free concentration of one partner at which half of the binding sites on the other are occupied at equilibrium, for simple one-to-one binding. A high value points to lower affinity. Broadly, the koff is the first-order rate constant of dissociation. Low values mean slow dissociation, high ones fast dissociation. The term kon denotes a measure of how fast the partners come together. In test [1], “Recombinant rat 8xHIS-β-parvin (natural protein)” returned a Kd of 11.1 nM, a koff of 8.6e-05 s⁻¹ and a kon of 10000 M⁻¹ s⁻¹.

B1: ILK (S343D): Recombinant mouse 8xHIS-ILK (S343D), custom-made by GenScript (protein)
chain: MDDIFTQCREGNAVAVRLWLDNTENDLNQGDDHGFSPLHWACREGRSAVVEMLIMRGARINVMNRGDDTPLHLAASHGHRDIVQKLLQYKADINAVNEHGNVPLHYACFWGQDQVAEDLVANGALVSICNKYGEMPVDKAKAPLRELLRERAEKMGQNLNRIPYKDTFWKGTTRTRPRNGTLNKHSGIDFKQLNFLAKLNENHSGELWKGRWQGNDIVVKVLKVRDWSTRKSRDFNEECPRLRIFSHPNVLPVLGACQAPPAPHPTLITHWMPYGSLYNVLHEGTNFVVDQSQAVKFALDMARGMAFLHTLEPLIPRHALNSRSVMIDEDMTARISMADVKFDFQCPGRMYAPAWVAPEALQKKPEDTNRRSADMWSFAVLLWELVTREVPFADLSNMEIGMKVALEGLRPTIPPGISPHVCKLMKICMNEDPAKRPKFDMIVPILEKMQDK
modifications: left off: 8xHIS, end not stated, state not stated
notes: Recombinant mouse 8xHIS-ILK (S343D), custom-made by GenScript
B1: the “ILK binding site in β-parvin (CH2 domain)” value in test [2] was “bound a few amino acids upstream of the syndecan-4 core binding site”.

(Values after publication PMC12447578, “Syndecan-4 interacts directly with β-parvin and regulates the ILK-PINCH-β-parvin complex, the β-parvin-β-PIX-Rac1 axis, and cardiomyocyte geometry in a sex-dependent manner” (Frontiers in Cell and Developmental Biology, 2025).)
